Blank lines part the entries; values can stand above or below the compound they belong to.
Experiments:
[1] = biological target: T1, DrPPX (Deinococcus radiodurans, UniProt Q9RYW9); experiment: X-ray crystal structure of complex; conditions: crystals grown in 1.26 M NaH2PO4 and 0.14 M K2HPO4, pH 5.6; four phosphate ions in the polyP-binding area
T1 construct: gene DR_A0185; full length, N-terminal His6 tag (pET-28a), expressed in E. coli BL21 Rosetta pLysS (DE3); asymmetric homodimer; about 515 residues (C-terminal deletion printed as 320-515)

[2] = biological target: AbPPX, exopolyphosphatase (PPX) from Acinetobacter baumannii (Acinetobacter baumannii 15827); experiment: crystal structure; sitting drop vapor diffusion at 20 °C, protein 1-5 mg/mL; molecular replacement with E. coli PPX (PDB 1U6Z); dimers seen in the crystals
[3] = biological target: DrPPX, exopolyphosphatase (PPX) from Deinococcus radiodurans, wild type (Deinococcus radiodurans R1); experiment: SEC; gel filtration chromatography; elution peak of DrPPX (+7AA) compared with that of wild-type DrPPX
[4] = biological target: DrPPX, exopolyphosphatase (PPX) from Deinococcus radiodurans, wild type (Deinococcus radiodurans R1); experiment: crystal structure; sitting drop vapor diffusion at 20 °C, protein 1-5 mg/mL; molecular replacement with E. coli PPX (PDB 1U6Z); dimers seen in the crystals
[5] = biological target: KpPPX, exopolyphosphatase (PPX) from Klebsiella pneumoniae (Klebsiella pneumoniae 1158); experiment: as above

T1 sequence (Q9RYW9 entry or part of it): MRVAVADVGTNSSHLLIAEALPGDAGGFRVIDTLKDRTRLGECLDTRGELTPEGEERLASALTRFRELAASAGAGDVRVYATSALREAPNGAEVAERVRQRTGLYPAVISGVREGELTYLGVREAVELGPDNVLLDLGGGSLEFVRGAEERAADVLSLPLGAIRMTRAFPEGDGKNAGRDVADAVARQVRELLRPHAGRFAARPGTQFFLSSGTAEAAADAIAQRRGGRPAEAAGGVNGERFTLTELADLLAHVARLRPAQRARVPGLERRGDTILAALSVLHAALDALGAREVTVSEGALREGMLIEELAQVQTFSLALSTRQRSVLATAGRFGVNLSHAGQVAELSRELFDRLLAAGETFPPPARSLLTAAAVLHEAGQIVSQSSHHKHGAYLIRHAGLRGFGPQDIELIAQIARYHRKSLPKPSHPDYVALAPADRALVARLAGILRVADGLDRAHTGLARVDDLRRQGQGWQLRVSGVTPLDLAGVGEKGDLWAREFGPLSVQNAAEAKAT

Compound: O=P(O)(O)O [Pi, phosphate]
- X-ray crystal structure of complex [1]: four phosphate ions were located in the polyP‐binding area

- stoichiometry N [2]: 2
Compound: AbPPX, exopolyphosphatase (PPX) from Acinetobacter baumannii (enzyme)

- stoichiometry N [3]: 2
- stoichiometry N [4]: 2
Compound: DrPPX, exopolyphosphatase (PPX) from Deinococcus radiodurans, wild type (enzyme)

- stoichiometry N [5]: 2
Compound: KpPPX, exopolyphosphatase (PPX) from Klebsiella pneumoniae (enzyme)

From publication PMC11234463, “Structural Evolution of Bacterial Polyphosphate Degradation Enzyme for Phosphorus Cycling” (Advanced Science, 2024)
